Six sequences from the Immune Epitope Database (IEDB) can be followed below.

One test deals with HLA-B*57:01. The test is described as follows: IEDB peptide-MHC binding, purified MHC/competitive/fluorescence; filed as Kd, often an IC50 or EC50 that approximates it; ≥ and ≤ were set here for values at or beyond the usual limits of such assays.
Another test concerns the target HLA-A*02:03. The description is as above.
A further test addresses HLA-A*26:01. Described as above. The following applies: source organism: Vibrio cholerae 2740-80.
The target in test [1] is HLA-A*02:01. Described as above.
For the next test, the target named is HLA-A*24:03. The description is as above. Particulars: source organism: Vibrio cholerae 2740-80.
The next test addresses HLA-B*51:01. The test is described as above. The following applies: source organism: Vibrio cholerae 2740-80.
The next test has as its target HLA-A*03:01. The description is as above. The following applies: source organism: Vibrio cholerae 2740-80.
A further test addresses HLA-B*27:03. The description is as above. Particulars: source organism: Vibrio cholerae 2740-80.
In the next test the target is HLA-A*02:19. Described as above. The following applies: source organism: Vibrio cholerae 2740-80.
Test [2] concerns the target HLA-B*46:01. The test is described as above. Particulars: source organism: Vibrio cholerae 2740-80.
A further test deals with HLA-A*25:01. The test is described as above. The following applies: source organism: Vibrio cholerae 2740-80.
The target in a further test is HLA-A*02:16. The description is as above. Particulars: source organism: Vibrio cholerae 2740-80.
A further test addresses HLA-A*02:12. The description is as above. The following applies: source organism: Vibrio cholerae 2740-80.
Test [3] has as its target HLA-A*02:01. Kind of test: IEDB peptide-MHC binding, cellular MHC/competitive/fluorescence; ≥ and ≤ were set here for values at or beyond the usual limits of such assays. The following applies: source organism: Homo sapiens.
For a further test, the target named is HLA-B*83:01. Kind of test: IEDB peptide-MHC binding, purified MHC/competitive/fluorescence; filed as Kd, often an IC50 or EC50 that approximates it; ≥ and ≤ were set here for values at or beyond the usual limits of such assays. Particulars: source organism: Gorilla gorilla.
Another test addresses HLA-C*14:02. The description is as above. Particulars: source organism: Gorilla gorilla.
Another test deals with HLA-B*15:42. The test is described as above. The following applies: source organism: Gorilla gorilla.
Another test addresses HLA-B*45:06. The description is as above. Particulars: source organism: Gorilla gorilla.
The target in the next test is HLA-C*12:03. Kind of test: IEDB peptide-MHC binding, purified MHC/direct/fluorescence; filed as Kd, often an IC50 or EC50 that approximates it; ≥ and ≤ were set here for values at or beyond the usual limits of such assays.
The target of the next test is HLA-B*35:01. Kind of test: IEDB peptide-MHC binding, purified MHC/competitive/fluorescence; filed as Kd, often an IC50 or EC50 that approximates it; ≥ and ≤ were set here for values at or beyond the usual limits of such assays.
A further test concerns the target HLA-B*15:01. Described as above.
Another test deals with HLA-A*11:01. The test is described as above. Particulars: source organism: Vibrio vulnificus CMCP6.
A further test deals with HLA-B*15:17. Described as above. The following applies: source organism: Vibrio vulnificus CMCP6.
The target of the next test is HLA-A*02:06. The description is as above. Particulars: source organism: Vibrio vulnificus CMCP6.
A further test addresses HLA-B*15:09. The test is described as follows: IEDB peptide-MHC binding, purified MHC/direct/fluorescence; filed as Kd, often an IC50 or EC50 that approximates it; ≥ and ≤ were set here for values at or beyond the usual limits of such assays. Particulars: source organism: Vibrio vulnificus CMCP6.
The target of another test is HLA-A*01:01. The test is described as above. The following applies: source organism: Vibrio vulnificus.
The target of a further test is HLA-B*08:01. The test is described as above. The following applies: source organism: Vibrio vulnificus CMCP6.
In a further test the target is HLA-B*48:01. Described as above. The following applies: source organism: Vibrio vulnificus.
A further test concerns the target HLA-B*38:01. Described as above. Particulars: source organism: Vibrio vulnificus CMCP6.
For the next test, the target named is HLA-A*69:01. Described as above. Particulars: source organism: Vibrio vulnificus.
The target in another test is HLA-B*58:01. Described as above. The following applies: source organism: Vibrio vulnificus CMCP6.
Another test has as its target HLA-A*26:02. Described as above. Particulars: source organism: Vibrio vulnificus CMCP6.
The next test concerns the target HLA-B*27:05. The description is as above. Particulars: source organism: Vibrio vulnificus.
Test [4] deals with HLA-B*46:01. The description is as above. Particulars: source organism: Vibrio vulnificus.
Another test addresses HLA-B*08:02. The test is described as above. Particulars: source organism: Vibrio vulnificus CMCP6.
Another test has as its target HLA-B*40:01. The test is described as above. Particulars: source organism: Vibrio vulnificus.
Another test concerns the target HLA-A*31:01. The test is described as above. The following applies: source organism: Vibrio vulnificus.
The target of the next test is HLA-A*26:03. The description is as above. Particulars: source organism: Vibrio vulnificus CMCP6.
The mark [5] stands for this setting: source organism: Vibrio cholerae 2740-80.
Where [6] appears, read: source organism: Bacillus anthracis str. A0488.
The mark [7] stands for this setting: source organism: Vibrio vulnificus CMCP6.
Setting [8] is: source organism: Desulfitobacterium hafniense DCB-2.

Where only a bound is given, the exact number is not on record here.

For the sequence HSYLWDHQM, the Kd in the test with HLA-B*57:01 (setting [5]) is 54.7 nM; with HLA-A*02:03 (setting [5]), ≥ 20000 nM; with HLA-A*26:01, ≥ 20000 nM; with HLA-A*02:01 [1] (setting [5]) it was ≥ 20000 nM; with HLA-A*24:03, ≥ 20000 nM; with HLA-B*51:01, ≥ 20000 nM. Further, the Kd with HLA-A*03:01, in the test with HLA-B*27:03, with HLA-A*02:19, in the test with HLA-B*46:01 [2], with HLA-A*25:01 and with HLA-A*02:16 was ≥ 20000 nM in each case. Besides, the Kd with HLA-A*02:12 is ≥ 20000 nM.

SLSEKTVLL: the half-inhibitory concentration (IC50) in the test with HLA-A*02:01 [3] worked out at 21000 nM. In other words, the double-digit micromolar range.

In the case of VMAPRTLVL, the Kd with HLA-B*83:01 was ≥ 5000 nM; with HLA-C*14:02, 77.2 nM; with HLA-B*15:42, ≥ 5000 nM; with HLA-B*45:06 it was ≥ 5000 nM; with HLA-C*12:03 (source organism: Gorilla gorilla) it was 2280 nM. The sequence also showed an IC50 in the test with HLA-A*02:01 [3] of 10500 nM.

In the case of WCMQHLPSY, the results for the Kd with HLA-B*35:01 (setting [6]) and with HLA-B*15:01 (setting [6]) were 4 nM and 102 nM, respectively.

With VTFFCVMTY, the Kd with HLA-B*57:01 (setting [7]) was 1750 nM; with HLA-A*11:01 it was 225 nM; with HLA-A*02:03 (setting [7]), ≥ 20000 nM; in the test with HLA-A*02:01 [1] (setting [7]), 2100 nM; in the test with HLA-B*15:17, 15.1 nM; in the test with HLA-A*02:06, 478 nM. Further, the Kd was 2230 nM with HLA-B*15:01 (setting [7]); 43 nM with HLA-C*12:03 (setting [7]); ≥ 20000 nM with HLA-B*15:09; 992 nM with HLA-A*01:01; ≥ 20000 nM with HLA-B*08:01; ≥ 20000 nM in the test with HLA-B*48:01. Further, the Kd was ≥ 20000 nM with HLA-B*38:01; ≥ 20000 nM with HLA-A*69:01; 111 nM with HLA-B*58:01; 1780 nM with HLA-A*26:02; ≥ 20000 nM with HLA-B*27:05; ≥ 20000 nM with HLA-B*46:01 [4]. In addition, the dissociation constant (Kd) in the test with HLA-B*08:02, with HLA-B*40:01, in the test with HLA-A*31:01 and in the test with HLA-A*26:03 was ≥ 20000 nM in each case.

With FAGDLYRMY, the Kd in the test with HLA-B*35:01 (setting [8]) came out at 7.1 nM; with HLA-B*15:01 (setting [8]), 806 nM.
